Data published in patent JP2011016773A.

Target: HAMA血清タイプ1(Roche製、品番:1767275)
Assay: forward sandwich ELISA, inhibition of HAMA bridging of anti-hCEA antibodies, blocker solution at 1 ug/ml

| HAMA回避効果 | HAMA回避率 | Substance |
| --- | --- | --- |
| 61% | – | マウスIgG(CHEMICON製、品番:PP54) (antibody) |
| – | 68% | Heterophilic Blocking Reagent1 (SCANTIBODIES LABORATORY，INC.製、品番:3KC534−075) |
| – | 69% | MAK33−IgG1(Roche製、品番:1200941) (antibody) |
